{"source": "the supplement of paper PMC12042874", "note": "± gives the uncertainty stated by the source.", "data": [{"experiment": "amyloid nucleation score (Sup35N fusion, yeast selection) (log enrichment); library NNK3; higher = more nucleation; inactive = no reads after selection", "how_it_was_run": "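On medium lacking adenine and uracil, psi-negative yeast expressing peptides of 20 random codons fused to Sup35N were grown 7 days at 30°C after a 24-hour induction with 100 μM copper sulfate. Illumina sequencing of input and output plasmid inserts gave the reads, and sequences under 100 input reads were excluded. The nucleation score is the DiMSum log enrichment of output over input reads, centred on the mode score of non-aggregating sequences.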", "values": [{"substance": "IRSMGRPTRKLCEPGFSALE", "amyloid nucleation score": "inactive"}, {"substance": "IRVSN", "amyloid nucleation score": "inactive"}, {"substance": "IRYCGHIRTGCFRLISDLF", "amyloid nucleation score": "inactive"}, {"substance": "IRYYFRHLG", "amyloid nucleation score": "-0.203 ± 0.36"}, {"substance": "ISAGNTRSTYRLGSWDTSRE", "amyloid nucleation score": "inactive"}, {"substance": "ISCGYSYGTRRFS", "amyloid nucleation score": "inactive"}, {"substance": "ISCRMYLCCQVLTSSCTWSH", "amyloid nucleation score": "1.34 ± 0.11"}, {"substance": "ISDLTHFRYRDVPNLLVRTK", "amyloid nucleation score": "inactive"}, {"substance": "ISEVLLCAFVVYIMRKR", "amyloid nucleation score": "0.953 ± 0.11"}, {"substance": "ISGEQRYSKCRT", "amyloid nucleation score": "inactive"}, {"substance": "ISGIHITSELRRGTPERCSH", "amyloid nucleation score": "inactive"}, {"substance": "ISGTFACQNSTFFSGYREAI", "amyloid nucleation score": "inactive"}, {"substance": "ISINLIVRCRRLHTPHLPVK", "amyloid nucleation score": "inactive"}, {"substance": "ISLFGIMWIRLLHLRHESKA", "amyloid nucleation score": "inactive"}, {"substance": "ISLGCLYLFCYVTGCICSVG", "amyloid nucleation score": "1.49 ± 0.094"}, {"substance": "ISMDRYHNTRHSVNRILLTC", "amyloid nucleation score": "inactive"}, {"substance": "ISPCVPKSAWSIFRIAI", "amyloid nucleation score": "inactive"}, {"substance": "ISRDGVRCEVWMWPWPREPA", "amyloid nucleation score": "inactive"}, {"substance": "ISSYFNMCDLCVDVRHTYRR", "amyloid nucleation score": "inactive"}, {"substance": "ISTVFLVISSAGTCPSHDKE", "amyloid nucleation score": "1.32 ± 0.095"}, {"substance": "ISVRFLCNYCRRVYIRRCAV", "amyloid nucleation score": "inactive"}, {"substance": "ISWTYVRYYGHKKCCLFYHF", "amyloid nucleation score": "inactive"}, {"substance": "ISWWAMCACSARKVRF", "amyloid nucleation score": "inactive"}, {"substance": "ITDYMIQF", "amyloid nucleation score": "-0.66 ± 0.7"}, {"substance": "ITGGTPCGITTVWQKGAMG", "amyloid nucleation score": "inactive"}, {"substance": "ITGMVPWSSLESSRPGSLKR", "amyloid nucleation score": "inactive"}, {"substance": "ITMCIIHHRHLMATSFM", "amyloid nucleation score": "0.752 ± 0.18"}, {"substance": "ITMCRDFLLAPWPCLLQPSH", "amyloid nucleation score": "inactive"}, {"substance": "ITNIFFFHSTLLRSCRASGN", "amyloid nucleation score": "2.47 ± 0.063"}, {"substance": "ITNVRSVRFLYSSTYYHIVL", "amyloid nucleation score": "1.83 ± 0.11"}, {"substance": "ITSEIMAIWFDICKAWDLCV", "amyloid nucleation score": "inactive"}, {"substance": "ITTFVVMCDLVVLVC", "amyloid nucleation score": "inactive"}, {"substance": "ITVELTCGSGYYGTMTENQV", "amyloid nucleation score": "inactive"}, {"substance": "IVAGVMADNDIRQDCAWKFK", "amyloid nucleation score": "1.34 ± 0.12"}, {"substance": "IVDHNIMI", "amyloid nucleation score": "0.718 ± 0.3"}, {"substance": "IVIYLSHDKNLIQVRSSCEG", "amyloid nucleation score": "2.59 ± 0.056"}, {"substance": "IVLNKSILYADTCPLFPTMR", "amyloid nucleation score": "0.655 ± 0.11"}, {"substance": "IVRDFLAGPIKHSTFEVIDF", "amyloid nucleation score": "inactive"}, {"substance": "IVRFNSLHYFWETDKTI", "amyloid nucleation score": "inactive"}, {"substance": "IVRWGSQSGVYRMPIEAWKW", "amyloid nucleation score": "inactive"}, {"substance": "IVSTWG", "amyloid nucleation score": "inactive"}, {"substance": "IVSYSGRNRDAHLKSS", "amyloid nucleation score": "inactive"}, {"substance": "IVTHSMSSAHINRMNSRQ", "amyloid nucleation score": "inactive"}, {"substance": "IVVCAQTLHSLGPRPIEPTQ", "amyloid nucleation score": "inactive"}, {"substance": "IVVNR", "amyloid nucleation score": "inactive"}, {"substance": "IVVNT", "amyloid nucleation score": "inactive"}, {"substance": "IVWTVFNALQPLGNALRVSV", "amyloid nucleation score": "inactive"}, {"substance": "IVYILRFRTSMLC", "amyloid nucleation score": "inactive"}, {"substance": "IVYWCLVRNLEKLCCSYFTG", "amyloid nucleation score": "inactive"}, {"substance": "IWGPTADKSRSVIGSVIKQG", "amyloid nucleation score": "inactive"}, {"substance": "IWISYRMVSFEASKQSVVL", "amyloid nucleation score": "inactive"}, {"substance": "IWKRLYPFTVRQVSCTIMCD", "amyloid nucleation score": "inactive"}, {"substance": "IWNRLESFHCHILMVTFHVN", "amyloid nucleation score": "inactive"}, {"substance": "IWPWYCKHNIFVKYHRLVER", "amyloid nucleation score": "inactive"}, {"substance": "IWRLCNVPICPSLRGAGHYS", "amyloid nucleation score": "inactive"}, {"substance": "IWSIQLSFKIASSCNFATG", "amyloid nucleation score": "inactive"}, {"substance": "IWVSYWAGFVRSFSRVCNLV", "amyloid nucleation score": "inactive"}, {"substance": "IWWILIDP", "amyloid nucleation score": "inactive"}, {"substance": "IYGGCIFYRMSQCARMDTGE", "amyloid nucleation score": "inactive"}, {"substance": "IYIFGFQTVCNSLIGGLSIA", "amyloid nucleation score": "inactive"}, {"substance": "IYLYYGRTYSTFLWEV", "amyloid nucleation score": "0.762 ± 0.12"}, {"substance": "IYRQDCGFSPKNRKMVSGAA", "amyloid nucleation score": "inactive"}, {"substance": "IYRTPSADDLSRDAYIGFYR", "amyloid nucleation score": "inactive"}, {"substance": "IYSSCPFNLTSRMVGF", "amyloid nucleation score": "inactive"}, {"substance": "IYTFSCDIYCNMSFCLWFDN", "amyloid nucleation score": "2 ± 0.088"}, {"substance": "IYWDTRLGFCAYAKC", "amyloid nucleation score": "inactive"}, {"substance": "KANFNVSVGKSVHATCLLTL", "amyloid nucleation score": "inactive"}, {"substance": "KAPVVWYDMEARQKCVRGGG", "amyloid nucleation score": "inactive"}, {"substance": "KATWSCLHLATHSASPCQSA", "amyloid nucleation score": "inactive"}, {"substance": "KAVVLGEWTRSFCSLDFNI", "amyloid nucleation score": "inactive"}, {"substance": "KAWETWAITTRSWKMFIRCL", "amyloid nucleation score": "0.046 ± 0.96"}, {"substance": "KCFISYR", "amyloid nucleation score": "inactive"}, {"substance": "KCIGDLTSRMDLR", "amyloid nucleation score": "inactive"}, {"substance": "KCLKCKTGLCTMQGEYNRSY", "amyloid nucleation score": "-0.475 ± 0.88"}, {"substance": "KDADMDLLSRYATRCGVSRL", "amyloid nucleation score": "inactive"}, {"substance": "KDCMVYWLRI", "amyloid nucleation score": "inactive"}, {"substance": "KDNPLSCLVKVNVWTKLQEG", "amyloid nucleation score": "1.16 ± 0.12"}, {"substance": "KDSQALHRFSNTILRYL", "amyloid nucleation score": "-0.406 ± 0.82"}, {"substance": "KDSRSCLSFL", "amyloid nucleation score": "inactive"}]}]}
